# Test system: promoters of target genes in 293T cells
# Test: ChIP in transfected 293T cells (FLAG-MORFN WT or F287A)
# Format: cell-based
# Protocol: Chromatin preparation from MEF, U2OS (ATCC HTB-96) and 293T cells were done as previously described. […] Next, 50 μl of Protein G Dynabeads for FLAG ChIP or 25 μl of Protein A Dynabeads was added to each sample and incubated for 4 h at 4 °C. The beads were washed extensively and eluted with 1% SDS and 0.1 M NaHCO3. Cross-linked samples were reversed by heating overnight at 65 °C in the presence of 0.2 M NaCl. Samples were then treated with RNase A and proteinase K for 2 h, and DNA was recovered by phenol-chloroform and ethanol precipitation. Quantitative real-time PCR corrected for primer efficiencies in the linear range were performed using SYBR Green I (Roche) on a LightCycler 480 (Roche).
# [1] = corrected for total H3, two independent experiments
Molecule,"association with promoters (FLAG ChIP) (compared to WT FLAG-MORF, two independent experiments)",H3K14ac level on promoters (ChIP) [1],H3K23ac level on promoters (ChIP) [1]
"FLAG-MORF F287A: FLAG-tagged MORFN F287A mutant defective in histone H3 binding, expressed in 293T cells (protein, UniProt Q8WYB5 1-716, looked up, variant F287A, residues 1-716 FLAG tag) MVKLANPLYTEWILEAIQKIKKQKQRPSEERICHAVSTSHGLDKKTVSEQLELSVQDGSVLKVTNKGLASYKDPDNPGRFSSVKPGTFPKSAKGSRGSCNDLRNVDWNKLLRRAIEGLEEPNGSSLKNIEKYLRSQSDLTSTTNNPAFQQRLRLGAKRAVNNGRLLKDGPQYRVNYGSLDGKGAPQYPSAFPSSLPPVSLLPHEKDQPRADPIPICSFCLGTKESNREKKPEELLSCADCGSSGHPSCLKFCPELTTNVKALRWQCIECKTCSACRVQGRNADNMLACDSCDRGFHMECCDPPLSRMPKGMWICQVCRPKKKGRKLLHEKAAQIKRRYAKPIGRPKNKLKQRLLSVTSDEGSMNAFTGRGSPGRGQKTKVCTTPSSGHAASGKDSSSRLAVTDPTRPGATTKITTTSTYISASTLKVNKKTKGLIDGLTKFFTPSPDGRRSRGEIIDFSKHYRPRKKVSQKQSCTSHVLATGTTQKLKPPPSSLPPPTPISGQSPSSQKSSTATSSPSPQSSSSQCSVPSLSSLTTNSQLKALFDGLSHIYTTQGQSRKKGHPSYAPPKRMRRKTELSSTAKSKAHFFGKRDIRSRFISHSSSSSWGMARGSIFKAIAHFKRTTFLKKHRMLGRLKYKVTPQMGTPSPGKGSLTDGRIKPDQDDDTEIKINIKQESADVNVIGNKDVVTEEDLDVFKQAQELSWEKIECESGVEDC",decreased association,H3K14ac level was unaffected by the mutation,expression of WT FLAG-MORF but not F287A mutant increases H3K23ac level
"WT FLAG-MORF: FLAG-tagged wild-type MORFN (residues 1–716 of MORF) expressed in 293T cells (protein, UniProt Q8WYB5 1-716, looked up, fragment, FLAG tag, FLAG-tagged wild-type MORFN (residues 1–716 of MORF) expressed in 293T cells) MVKLANPLYTEWILEAIQKIKKQKQRPSEERICHAVSTSHGLDKKTVSEQLELSVQDGSVLKVTNKGLASYKDPDNPGRFSSVKPGTFPKSAKGSRGSCNDLRNVDWNKLLRRAIEGLEEPNGSSLKNIEKYLRSQSDLTSTTNNPAFQQRLRLGAKRAVNNGRLLKDGPQYRVNYGSLDGKGAPQYPSAFPSSLPPVSLLPHEKDQPRADPIPICSFCLGTKESNREKKPEELLSCADCGSSGHPSCLKFCPELTTNVKALRWQCIECKTCSACRVQGRNADNMLFCDSCDRGFHMECCDPPLSRMPKGMWICQVCRPKKKGRKLLHEKAAQIKRRYAKPIGRPKNKLKQRLLSVTSDEGSMNAFTGRGSPGRGQKTKVCTTPSSGHAASGKDSSSRLAVTDPTRPGATTKITTTSTYISASTLKVNKKTKGLIDGLTKFFTPSPDGRRSRGEIIDFSKHYRPRKKVSQKQSCTSHVLATGTTQKLKPPPSSLPPPTPISGQSPSSQKSSTATSSPSPQSSSSQCSVPSLSSLTTNSQLKALFDGLSHIYTTQGQSRKKGHPSYAPPKRMRRKTELSSTAKSKAHFFGKRDIRSRFISHSSSSSWGMARGSIFKAIAHFKRTTFLKKHRMLGRLKYKVTPQMGTPSPGKGSLTDGRIKPDQDDDTEIKINIKQESADVNVIGNKDVVTEEDLDVFKQAQELSWEKIECESGVEDC",,,increases H3K23ac level on these promoters
